Experimental data taken from the supplement of paper PMC10567573.

Assay: protein stability index of a GFP-peptide fusion (GPS, HEK-293T) (PSI 1-6); higher = more stable
Conditions: parent: NP_015628.1; c terminus: native
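Also: lentivirally expressed fusion library, cells FACS-sorted into six equal-sized GFP/DsRed ratio bins, PSI computed from sequencing read fractions per bin weighted by bin number.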

Q: With EQRNSRWNTVLRAVKAKTHHLEPV [TRPA1 addV] as the protein, how does the protein stability index read?
A: 4.23

Q: Which protein stability index does the source give for EQRNSRWNTVLRAVKAKTHHLEPN [TRPA1 addN] here?
A: 4.57

Same assay, conditions: parent: NP_002788.1; c terminus: native

Q: With DGWIRVSSDNVADLHEKYSGSTPN [PSMB5 addN] as the protein, how does the protein stability index read?
A: 4.04

Q: With DGWIRVSSDNVADLHEKYSGSTPV [PSMB5 addV] as the protein, how does the protein stability index read?
A: 4.27

Same assay, conditions: parent: NP_116010.1; c terminus: native

Q: Which protein stability index does the source give for HSLRAVSTDPPHHDHHDEFCLMPV [BEX2 addV] here?
A: 3.68

Q: Which protein stability index does the source give for HSLRAVSTDPPHHDHHDEFCLMPN [BEX2 addN] here?
A: 4.18

Same assay, conditions: parent: NP_009172.2; c terminus: native

Q: For LPALFTDLYSQEITAEEAREALPV [SNF8 addV], which protein stability index is on record?
A: 3.9

Q: With LPALFTDLYSQEITAEEAREALPN [SNF8 addN] as the protein, how does the protein stability index read?
A: 4.75

Same assay, conditions: parent: NP_006221.1; c terminus: native

Q: With CQPISFSGFGAEDDDLGGLGLGPV [POLD2 addV] as the protein, how does the protein stability index read?
A: 3

Q: For CQPISFSGFGAEDDDLGGLGLGPN [POLD2 addN], which protein stability index is on record?
A: 1.99
